Patent US20230405119A1 (published 2023)
Changes are numbered by the printed parent chain. Blank lines part the entries; values can stand above or below the binder they belong to.

Biological target: IL13ra2-Fc
Assay: yeast display flow cytometry titration

Kd: 480 nM
B1: RLK (ligand)
chain: GPVPPSTALRRLIEELVNITQNQKAPLCNGSMVWSINLTAGMYCAALESLINVSGCSAIEKTQRMLSGFCPHKVSAGQFSSLHVRDTKILVAQFVKDLLLHLKKLFKEGRFN

Kd: 200 nM
B2: YLK (ligand)
chain: B1 chain with R11Y
